In article PMC7331920 one finds Kd data, which are given here for three substances.

In one test the target is JADE1 PHD finger 1. The experiment in a line: fluorescence polarisation.
The target of test [1] is PHF14 PHD finger 1 (GST-fusion protein). The experiment in a line: fluorescence polarisation. Background: Polarisation of emitted light reports the rotation of a fluorescent probe.

Some results are limits rather than exact numbers.

As usually defined, the Kd is the equilibrium constant for the complex coming apart. A high value points to a looser complex. “H3K4me0 peptide (unmodified / wild-type H3 tail peptide)”: the Kd turned out to be 32 µM in the test with JADE1 PHD finger 1 and 7 µM in test [1].

In the test with JADE1 PHD finger 1, H3K4me3 peptide registered a Kd above 100 µM.

Regarding H3K4norleucine peptide, the Kd with JADE1 PHD finger 1 is above 100 µM.
